Numbering of substitutions follows the chain as printed. Names and notes keep the numbering of the source.
B1: NaKΔ18 (domain or fragment, Bacillus cereus, UniProt Q81HW2 19-114, looked up)
chain: WKDKEFQVLFVLTILTLISGTIFYSTVEGLRPIDALYFSVVTLTTVGDGNFSPQTDFGKIFTILYIFIGIGLVFGFIHKLAVNVQLPSILSNRKKE
B2: L35A NaKΔ18 (domain or fragment, Bacillus cereus, UniProt Q81HW2 19-114, looked up)
chain: B1 chain with L17A
B3: L61A NaKΔ18 (domain or fragment, Bacillus cereus, UniProt Q81HW2 19-114, looked up)
chain: B1 chain with L43A
B4: L35A/L61A NaKΔ18 (domain or fragment, Bacillus cereus, UniProt Q81HW2 19-114, looked up)
chain: B1 chain with L17A, L43A
B5: L61T NaKΔ18 (domain or fragment, Bacillus cereus, UniProt Q81HW2 19-114, looked up)
chain: B1 chain with L43T

Target: the molecule itself
Test: SEC

Stoichiometry N, 4:
B1
B2
B3
B4
B5
